The text below walks through data of patent publication US11530240B2, “Catheter injectable cyclic peptide pro-gelators for myocardial tissue engineering” (The Regents of the University of California, priority 2017, dated 2022).

The target in data set [1] is T1, Thermolysin (Bacillus thermoproteolyticus, UniProt P00800).
T1 sequence (P00800 233-548): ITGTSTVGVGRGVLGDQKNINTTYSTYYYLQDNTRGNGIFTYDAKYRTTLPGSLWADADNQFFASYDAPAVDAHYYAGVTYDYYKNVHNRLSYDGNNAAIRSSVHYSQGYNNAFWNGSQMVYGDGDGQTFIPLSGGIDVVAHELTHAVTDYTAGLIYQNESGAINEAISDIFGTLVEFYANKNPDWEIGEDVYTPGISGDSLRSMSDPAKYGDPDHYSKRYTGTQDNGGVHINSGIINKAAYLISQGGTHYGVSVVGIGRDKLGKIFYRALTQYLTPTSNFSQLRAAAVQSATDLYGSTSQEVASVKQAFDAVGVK
Briefly: Time course rheological analysis of bulk gelation after thermolysin addition. The format is physicochemical. Further details: purchased Promega V400A. Particulars: 10 mM in 1×DPBS, thermolysin 1:4500 added at t=40 min, 37° C. The method, then: (§1) Rheological characterization. All peptide samples were prepared at 10 mM peptide, except for those used to assess the effect of SAP functionalization with respect to weight (15 mg/mL). Viscous and viscoelastic properties were assessed using a stress-controlled rheometer (TA Instruments AR-02) equipped with a Peltier plate to control temperature and a 20 mm diameter parallel plate geometry. Unless otherwise stated all measurements were taken at an angular frequency of 2.5 rad s^−1, strain of 0.5%, and temperature of 37° C. Measurements were performed with a gap height of 1000 μm and repeated three times (except for step-strain tests) to ensure reproducibility. To prevent water evaporation, mineral oil was wrapped around the edge of the geometry at the air-sample interface. For viscoelastic measurements the apparatus was used in oscillatory mode. […] The dynamic moduli of the hydrogels were measured as a function of frequency in the range 0_25-100 rad s^−1 at a strain of 0.5%. Continuous step-strain oscillations were used to monitor hydrogel healing through disruption (3 min, 100% strain) and recovery (15 min. 0.5% strain) cycles (n=3). Temperature sweeps were measured by increasing the apparatus temperatures from 21-40° C. at a ramp rate of 0.5° C./min. […] The viscosity of the samples was measured as a function of shear rate in the range 0.1-10 s^−1 (5% tolerance.

Data set [2] in a line: Viscoelastic measurements of functionalized SAP hydrogels (gel capacity). The format is physicochemical. The note with it: 15 mg/mL in 1×DPBS, 2.5 rad/s. The method, then:
as §1

For another data set, the system named is red blood cells (RBCs). Briefly: Hemolysis of red blood cells (RBCs). In kind it is cell-based, human. The note with it: positive (normalization) control 1% Triton X-100; isolated RBCs, 1 hr incubation; n=4. As to the method: (§2) Hemocompatibility analysis.
Hemolysis assay. Acute toxicity of cyclic peptide progelator was measured with a RBC hemolysis assay specific to biomacromolecular drug analysis, as previously described.^73 Averages (n=4) and standard error of the mean (SEM) for absorbance measurements (at 540 nm) were plotted.

Data set [3] deals with T2, Porcine pancreatic elastase (Sus scrofa, UniProt P00772).
T2 construct: purchased EMD Millipore 3246821000U
The data set is described as follows: In vitro enzyme cleavage of cyclic progelator by elastase. Particulars: 1:250 enzyme/substrate, 5 hr; denatured enzyme elicited no response. In kind it is biochemical. The text has this:
(§3) Transmission electron microscopy (TEM).
(§4) In vitro enzyme cleavage of cyclic peptide progelator. […] Control samples utilized denatured enzymes under the same conditions.

Data set [4] addresses T3, MMP-9 (recombinant human catalytic domain) (Homo sapiens, UniProt P14780).
T3 construct: MMP-9 (recombinant human catalytic domain); purchased Enzo Life Sciences BML-SEro360
The data set is described as follows: In vitro enzyme cleavage of cyclic progelator by MMP-9. In kind it is biochemical. The note with it: 1:1000 enzyme/substrate, 5 hr; denatured enzyme elicited no response.
From the text: as §3, §4

The target in data set [5] is T1, Thermolysin. Particulars: 1:4500 enzyme/substrate.
Protocol: General information. […] Thermolysin (V400A) was acquired from Promega, as a lyophilized powder.
In vitro enzyme cleavage of cyclic peptide progelator. Unless otherwise stated, enzyme cleavage experiments were performed on progelator at a final concentration of 500 μM in 1× enzyme cleavage buffers. […] Thermolysin cleavages were performed at 1:4500 enzyme/substrate molar ratio in 1× buffer (1×DPBS, pH 7.4) for 15 min. […] Control samples utilized denatured enzymes under the same conditions. […] Thermolysin was inactivated by incubation with 10% (v/v) EDTA (0.5 M, pH 8.0)
Data set [6] has as its system whole human blood. The data set is described as follows: Whole blood hemostasis kinetics (non-activated whole blood clotting assay). Particulars: positive controls; recalcified whole human blood. As to the method:
as §2
Whole blood hemostasis kinetics. Changes to time-dependent hemostasis were monitored using a non-activated whole blood clotting assay.^72 Briefly, 100 μL of citrated whole human was mixed with 10 μL of peptide or collagen stock (11.5× final blood concentration) and 5 μL of CaCl2 (230 mM). Collagen (0.095 mg/mL) and glass coverslips were used as positive controls to increase clotting rates from an additive and contact initiated perspective, respectively. […] Aliquots (100 μL) were transferred to a 12-well TCP, covered, and incubated at r.t. for 5 min, 15 min, 30 min, and 45 min. Each sample was prepared in triplicate. At the end of each time point, RBCs not caught in the thrombus were lysed by gently adding 3 mL distilled H2O and incubating for 5 min. Each well was sampled (200 μL), taking care not to disturb the clot, and transferred to a 96 well plate for analysis. Released hemoglobin from lysis was detected by measuring the absorbance at 405 nm (height 4.0 mm, 100 flashes) using a plate reader. Extent of clotting is inversely proportional to measured absorbance. Averages (n=3) and standard error of the mean (SEM) are plotted.

In data set [7] the test system is whole human blood. Briefly: Activated clotting times (ACT) with whole human blood. Particulars: positive control, collagen 0.095 mg/mL. As to the method:
as §2
Activated clotting times (ACT) with whole human blood. A Hemochron 801 instrument calibrated with an electronic system verification (ESV) device was used to measure activated clotting time (ACT) of whole human blood. Activated clotting times (ACT) were determined using recalcified citrated whole human blood to minimize variability in starting time points for clotting in all assays.^71 To each Hemochron P214 tube with glass beads was added 4 μL CaCl2 (1.1 M) and 36 μL peptide stock or additive (12.2× final blood concentration). Samples were mixed thoroughly for 30 s to soak the glass beads and incubated 30 s at 37° C. Citrated whole human blood (400 μL) was then added (t=0 s), mixed by hand for 10 s, and added to the instrument. Time points at which the magnet was displaced by clot formation were recorded by the instrument. Collagen (0.095 mg/mL) was used as a positive control to […] clotting time. Vehicle (1×DPBS) served as a standard for blood without additive. Samples without calcium, serving as the negative control, exceeded instrument maximum time range (>1500 sec). Each experiment was performed n=6 times with averages and standard error of the mean (SEM) plotted.

Bridges are numbered along the chain shown (N, C = ends). Where no end group is shown, it is not given here. rhodamine = 5(6)-carboxytetramethylrhodamine label attached at the N-terminus

T2 sequence (P00772 27-266): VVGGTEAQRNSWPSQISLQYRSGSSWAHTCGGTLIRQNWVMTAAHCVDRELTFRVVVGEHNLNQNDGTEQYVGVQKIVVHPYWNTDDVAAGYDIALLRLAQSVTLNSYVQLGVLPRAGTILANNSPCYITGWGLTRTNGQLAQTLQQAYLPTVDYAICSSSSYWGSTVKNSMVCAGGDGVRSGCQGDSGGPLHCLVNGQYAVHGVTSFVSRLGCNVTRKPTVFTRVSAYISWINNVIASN
T3 sequence (P14780 107-444 limits assumed): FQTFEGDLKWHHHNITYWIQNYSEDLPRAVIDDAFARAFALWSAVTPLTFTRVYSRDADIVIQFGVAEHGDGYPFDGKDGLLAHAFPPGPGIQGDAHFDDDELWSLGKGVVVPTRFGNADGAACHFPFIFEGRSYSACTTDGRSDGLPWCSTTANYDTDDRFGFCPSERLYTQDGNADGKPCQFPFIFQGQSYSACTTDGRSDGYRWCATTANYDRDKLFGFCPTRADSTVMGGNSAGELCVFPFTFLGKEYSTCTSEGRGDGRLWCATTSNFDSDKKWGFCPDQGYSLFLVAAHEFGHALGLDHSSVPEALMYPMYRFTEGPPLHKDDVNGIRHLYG

Take “CKLDLKLDLKLDLPLGLAGC (SEQ ID NO:6) (disulfide 1-20) [KLDL (SEQ ID NO:5)Cyclic, unlabeled cyclized enzyme-responsive progelator]”: in the data set with Thermolysin [1], the “time at which steady state of shear moduli (G′, G″) was reached” value came out at 200 min.
As to “C(KLDL)3PLGLAGC (SEQ ID NO: 6) (CKLDLKLDLKLDLPLGLAGC) [KLDL (SEQ ID NO:5)Linear, modified linear SAP primed for cyclization, no fluorescent label]”, the “gelling capacity (tanδ<1) and strain tolerance vs unmodified SAP” value in data set [2] was “no significant disruptive effects to gelling capacity”.
On to Triton X-100 [1% Triton X-100], for which, in the data set with red blood cells (RBCs), the “% Hemolysis” value worked out at 100.00%.
Consider “Rho-KLDL (SEQ ID NO:5)Cyclic: rhodamine labeled cyclized KLDL progelator (SEQ ID NO:6) (rhodamine-CKLDLKLDLKLDLPLGLAGC; disulfide 1-20)”, for which, in data set [3], the “response to active elastase cleavage (visual, TEM)” value was “induced visible aggregation in the reaction vial and entangled fibrous meshes by TEM”. For the same substance, in data set [4], the “response to active MMP-9 cleavage (visual, TEM)” value is “induced visible aggregation in the reaction vial and entangled fibrous meshes by TEM”. Moreover, in the data set with Thermolysin [5], the “response to thermolysin incubation (TEM)” value is recorded as “induced fiber formation by TEM”.
Turning to “Rho-KFDF (SEQ ID NO:1)Cyclic: rhodamine labeled cyclized KFDF progelator (SEQ ID NO:7) (rhodamine-CKFDFKFDFKFDFPLGLAGC; disulfide 1-20)”, in data set [3], the “response to active elastase cleavage (visual, TEM)” value was “induced visible aggregation in the reaction vial and entangled fibrous meshes by TEM”. Further, in data set [4], the “response to active MMP-9 cleavage (visual, TEM)” value is “induced visible aggregation in the reaction vial and entangled fibrous meshes by TEM”. In addition, the “response to thermolysin incubation (TEM)” value with Thermolysin [5] is “induced fiber formation by TEM”.
In the case of collagen [reference compound], in the data set on whole human blood [6], the “clot rate (hemostasis kinetics)” value is on record as “increased the clot rate”. In addition, the “effect on clot time vs vehicle (ACT)” value in the data set with whole human blood [7] is given as “significant clot time reduction”. Moreover, in the data set with whole human blood [7] (whole human blood, n=6), the “Activated clotting time (ACT), Average Time” value turned out to be 150 s.
Turning to “C(KFDF)3PLGLAGC (SEQ ID NO: 7) (CKFDFKFDFKFDFPLGLAGC) [KFDF (SEQ ID NO:1)Linear, modified linear SAP primed for cyclization, no fluorescent label]”, the “gelling capacity (tanδ<1) and strain tolerance vs unmodified SAP” value in data set [2] was “no significant disruptive effects to gelling capacity”.
